Measurements as given in patent publication US20060270591A1, “Androgen receptor coregulators” (priority 2002, published 2006).

Assays:
AR [1] = assay: AR transactivation reporter gene assay (CAT/Luc) in prostate cancer cell lines (Example 2); assay type: cell-based, human
Procedure: 394. The human prostate cancer cell lines, LNCaP, PC-3, and DU145, were maintained in Dulbecco's minimum essential medium (DMEM) containing 5% fetal calf serum (FCS). Transfections using the calcium phosphate precipitation method and chloramphenicol acetyltransferase (CAT) and luciferase (Luc) assays were performed as previously described (Miyamoto et al. (1998) Proc. Natl. Acad. Sci. U.S.A. 95, 7379-7384; Yeh et al. (1999) Endocrine 11, 195-202; Miyamoto et al. (1998) Proc. Natl. Acad. Sci. U.S.A. 95, 11083-11088). Briefly, 1-4×10^5 cells were plated on 35-mm or 60-mm dishes 24 h before adding the precipitation mix containing a CAT or Luc reporter gene and a β-galactosidase expression plasmid (pCMV-β-gal) as an internal control for normalization of transfection efficiency. The medium was changed to phenol-red-free DMEM with 5% charcoal-stripped FCS 1 h before transfection. In each experiment, the total amount of transfected DNA per dish was maintained as a constant by addition of empty expression vector (pSG5 or pVP16, as appropriate). […] The cells were then harvested and whole cell extracts were used for CAT or Luc assay. The CAT activity was quantitated with a PhosphorImager (Molecular Dynamics). The Luc assay was determined using a Dual-Luciferase Reporter Assay System (Promega) and luminometer.

PSA = assay: Western blot of endogenous PSA in stably transfected LNCaP cells; assay type: cell-based, human; settings: stable LNCaP cells; +doxy; 1 nM DHT; vector alone without doxy = 100%
Description: 14. […] (A) The effects of C′-ARA54 and mt-ARA54 on cell proliferation. […] Total cell number was counted by hemocytometer. Values represent the mean±SD of at least three determinations. (B) The effects of C′-ARA54 and mt-ARA54 on AR transcription activity. LNCaP cells stably transfected with pBIG2i (vector alone), pBIG2i-C′-ARA54, pBIG2i-mt-ARA54, or pBIG2i-fl-ARA54 were transiently transfected with MMTV-Luc. […] Values represent the mean±SD of at least three determinations. (C) The effects of C′-ARA54 and mt-ARA54 on PSA expression. […] The 33-kDa of protein was detected as indicated and quantitated by Collage Image Analysis software (Fotodyne). The normalized expression level in the first lane (vector alone without doxy treatment) was set as 100%. Values represent the mean±SD of three separate experiments.
395. […]

AR [2] = settings: prostate cancer cells; androgens or HF; cited from earlier work

AR, sequence (P10275 whole entry): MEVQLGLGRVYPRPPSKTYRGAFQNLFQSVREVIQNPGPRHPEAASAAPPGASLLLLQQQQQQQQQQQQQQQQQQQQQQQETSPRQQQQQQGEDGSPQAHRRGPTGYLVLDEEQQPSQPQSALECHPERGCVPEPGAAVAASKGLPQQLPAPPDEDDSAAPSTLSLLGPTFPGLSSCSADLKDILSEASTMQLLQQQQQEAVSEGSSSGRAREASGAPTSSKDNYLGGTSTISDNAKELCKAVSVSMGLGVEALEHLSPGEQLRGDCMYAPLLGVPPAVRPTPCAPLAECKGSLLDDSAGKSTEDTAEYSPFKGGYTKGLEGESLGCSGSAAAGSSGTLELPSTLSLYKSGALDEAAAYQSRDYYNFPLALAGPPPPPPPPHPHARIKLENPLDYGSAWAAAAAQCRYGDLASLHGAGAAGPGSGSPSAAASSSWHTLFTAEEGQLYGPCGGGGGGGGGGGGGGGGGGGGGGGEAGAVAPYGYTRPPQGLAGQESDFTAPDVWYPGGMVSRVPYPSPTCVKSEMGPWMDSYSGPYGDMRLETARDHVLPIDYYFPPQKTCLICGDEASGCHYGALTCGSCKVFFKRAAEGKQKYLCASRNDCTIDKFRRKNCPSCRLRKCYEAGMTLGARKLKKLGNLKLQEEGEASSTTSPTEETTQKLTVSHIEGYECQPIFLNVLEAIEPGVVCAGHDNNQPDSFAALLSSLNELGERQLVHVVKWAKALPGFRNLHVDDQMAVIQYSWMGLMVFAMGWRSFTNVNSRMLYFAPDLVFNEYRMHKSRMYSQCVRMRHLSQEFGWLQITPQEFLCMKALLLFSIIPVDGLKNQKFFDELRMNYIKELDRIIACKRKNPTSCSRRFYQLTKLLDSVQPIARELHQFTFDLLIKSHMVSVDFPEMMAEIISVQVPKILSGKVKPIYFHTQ

| Molecule | effect on ARA55-, ARA70-, Rb-, or SRC-1-enhanced AR transactivation (AR [1]; DU145 cells, 1 nM DHT) | effect on DHT- or HF-mediated AR transcription activity (AR [1]; LNCaP, PC-3, DU145 cells, 1 nM DHT or 1 μM HF) | endogenous PSA expression (PSA) [%] | enhancement of transactivation of wild-type AR and LNCaP mutant AR (AR [2]) |
| --- | --- | --- | --- | --- |
| C′-ARA54: C-terminal region (amino acids 361-474) of ARA54 (protein, Homo sapien, C-terminal region (amino acids 361-474) of ARA54) RNEYLQADEANKRLLDQRYGKRVIQKALEEMESKEWLEKNSKSCPCCGTPIEKLDGCNKMTCTGCMQYFCWICMGSLSRANPYKHFNDPGSPCFNRLFYAVDVDDDIWEDEVED | only marginal or slight suppressive effects | suppresses DHT- or HF-mediated AR transcription activity | 87 |  |
| ARA54: 54 kDa protein that interacts with AR in an androgen-dependent manner; AR coactivator (protein) MSSEDREAQEDELLALASIYDGDEFRKAESVQGGETRIYLDLPQNFKIFVSGNSNECLQNSGFEYTICFLPPLVLNFELPPDYPSSSPPSFTLSGKWLSPTQLSALCKHLDNLWEEHRGSVVLFAWMQFLKEETLAYLNIVSPFELKIGSQKKVQRRTAQASPNTELDFGGAAGSDVDQEEIVDERAVQDVESLSNLIQEILDFDQAQQIKCFNSKLFLCSICFCEKLGSECMYFLECRHVYCKACLKDYFEIQIRDGQVQCLNCPEPKCPSVATPGQVKELVEAELFARYDRLLLQSSLDLMADVVYCPRPCCQLPVMQEPGCTMGICSSCNFAFCTLCRLTYHGVSPCKVTAEKLMDLRNEYLQADEANKRLLDQRYGKRVIQKALEEMESKEWLEKNSKSCPCCGTPIEKLDGCNKMTCTGCMQYFCWICMGSLSRANPYKHFNDPGSPCFNRLFYAVDVDDDIWEDEVED |  |  |  | 2-6 fold |
